Source: article PMC6733452

B1: unnamed (parent)
chain 1: MFGLGHNSKEISMSHIGTKFILAEKFTFDPLSNTLIDKEDSEEIIRLGSNESRILWLLAQRPNEVISRNDLHDFVWREQGFEVDDSSLTQAISTLRKMLKDSTKSPQYVKTVPKRGYQLIARVETVEEEMARESEAAHDISQPESVNEYAESSSVPSSATVVNTPQPANVVTNKSAPNLGNRLLILIAVLLPLAVLLLTNPSQTSFKPLTVVDGVAVNMPNNHPDLSNWLPSIELCVKKYNEKHTGGLKPIEVIATGGQNNQLTLNYIHSPEVSGENITLRIVANPNDAIKVCE
chain 2: MGYVRVIYQFPDNLWWNECTNQVYYAQDPMKPERLIGTPSIIQTKLLKILCEYHPAPCPNDQIIKALWPHGFISSESLTQAIKRTRDFLNDEHKTLIENVKLQGYRINIIQVIVSENVVDEADCSQKKSVKERIKIEWGKINVVPYLVFSALYVALLPVIWWSYGQWYQHELAGITHDLRDLARLPGITIQKLSEQKLTFAIDQHQCSVNYEQKTLECTKN

Variants of: B1
Conditions: with partner chain of the complex shown; parent: 100; read off a plot

| Variant | percent of parent (% capture relative to wild-type ToxR) |
| --- | --- |
| chain 1 I120A | 90 |
| chain 1 K114A | 110 |
| chain 1 Q107A | 92 |
| chain 1 S102A | 84 |
| chain 1 S102A T103A Q107A V112A | 63 |
